From patent US6495673 (MEDICAL RESEARCH COUNCIL, dated 2002)
No end group written: not given here. *: point of attachment. Biotin = O=C1N[C@H]2[C@H](CS[C@H]2CCCCC(=O)*)N1

Columns and labels:
[1] = biological target: T1, GST-phage fusion FV7 (glutathione S-transferase displayed on phage without calmodulin, from vector pFV7) (S. japonica; filamentous phage, UniProt P08515 1-218 = GST; P69168 19-424); assay: phage ELISA on streptavidin plate with biotin-peptide
T1 construct: Any vector tags of pCANTAB6 are not described; also called non-specific phage; E-fd (GST)
T1 sequence (P08515 1-218, tags or fused parts left off): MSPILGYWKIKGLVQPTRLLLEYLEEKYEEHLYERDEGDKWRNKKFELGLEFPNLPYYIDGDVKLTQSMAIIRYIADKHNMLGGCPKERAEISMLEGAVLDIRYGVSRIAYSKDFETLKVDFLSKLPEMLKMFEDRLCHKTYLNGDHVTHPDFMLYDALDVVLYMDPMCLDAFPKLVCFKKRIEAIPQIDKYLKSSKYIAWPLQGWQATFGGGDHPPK

[2] = biological target: Calmodulin-tagged phage DN323 (calmodulin displayed as a gene III fusion on filamentous phage, from phagemid … (filamentous phage, UniProt P0DP23 2-149)); assay: competition ELISA over time with 1000-fold excess of unlabeled peptide

B1: biotin-labeled CAAARWKKAFIAVSAANRFKKIS peptide (SEQ ID NO: 15) (peptide)
peptide: Biotin-CAAARWKKAFIAVSAANRFKKIS
Q: Does B1 bind [1]?
A: no binding

Q: And the koff [2]?
A: < 0.1 s⁻¹
